According to article PMC8137920, “Self-association of MreC as a regulatory signal in bacterial cell wall elongation” (Nature Communications, 2021):

Assays:
[1] = molecular target: the molecule itself; assay: AUC; sedimentation velocity (SV-AUC), 0.8 mg/ml protein, 25 mM CHES pH 9.0, 150 mM NaCl, 10 mM MgCl2, 62,000 g, 20 °C, absorbance at 280 nm, c(s) analysis with Sedfit
[2] = molecular target: the molecule itself; assay: negative-staining electron microscopy; purified protein concentrated in 25 mM CHES pH 9.0, 150 mM NaCl, 10 mM MgCl2; mica-carbon flotation, 2% sodium silico tungstate pH 7.4

Protein	binding result [1]	binding result [2]
MreC from Pseudomonas aeruginosa, periplasmic form, residues 15-330 (domain or fragment, Pseudomonas aeruginosa PAO1, UniProt Q9HVU1 15-330, looked up, MreC, Pseudomonas aeruginosa PAO1, residues 15-330; lacks the first 14 amino acids (cytoplasmic residues and TM region); The results call it only 'MreCPa' (periplasmic form); also called MreCPa; MreCPa(15-330); not shown: GST, N-terminal, cleaved) RFDYLEPVRSKLGMVLTPFYGLAEMPVRAWEGVRDQFSSRSELIAENERLKAESLLMQRRVQKLAALTEQNVRLRELLNSAALVDDKVLVSELIGVDPNPFTQRIMIDKGENDGVFVGQPVLDASGLMGQVVEVMPYTARVLLLTDTTHSIPVQVNRNGLRAIAVGTGNPERLELRYVADTADIKEGDLLVSSGLGQRFPAGYPVATVKEVIHDSGQPFAVVRAVPTAKMNRSRYVLLVFSDSRTPEQRANDAAEAQEEADKKAAAGAQAPQPAAQPAAAPSPATPAAQGAAQQPAAAPAPAPTQPAAPAANGGRR	binds	
MreC from Pseudomonas aeruginosa lacking the TM region and the first 21 residues of its N-terminal helix, residues 36-330 (domain or fragment, Pseudomonas aeruginosa PAO1, UniProt Q9HVU1 36-330, looked up, MreC, Pseudomonas aeruginosa PAO1, residues 36-330; also called MreCPa(36-330); MreCPa; not shown: GST, N-terminal, cleaved) LAEMPVRAWEGVRDQFSSRSELIAENERLKAESLLMQRRVQKLAALTEQNVRLRELLNSAALVDDKVLVSELIGVDPNPFTQRIMIDKGENDGVFVGQPVLDASGLMGQVVEVMPYTARVLLLTDTTHSIPVQVNRNGLRAIAVGTGNPERLELRYVADTADIKEGDLLVSSGLGQRFPAGYPVATVKEVIHDSGQPFAVVRAVPTAKMNRSRYVLLVFSDSRTPEQRANDAAEAQEEADKKAAAGAQAPQPAAQPAAAPSPATPAAQGAAQQPAAAPAPAPTQPAAPAANGGRR		binds
